Measurements taken from US20180244758A1 (MAPP BIOPHARMACEUTICAL, published 2018).
Positions count from the first letter of the chain named.

T1: GP of authentic (wild-type) EBOV (Ebola virus (EBOV), UniProt P87666 33-676)
T1 sequence: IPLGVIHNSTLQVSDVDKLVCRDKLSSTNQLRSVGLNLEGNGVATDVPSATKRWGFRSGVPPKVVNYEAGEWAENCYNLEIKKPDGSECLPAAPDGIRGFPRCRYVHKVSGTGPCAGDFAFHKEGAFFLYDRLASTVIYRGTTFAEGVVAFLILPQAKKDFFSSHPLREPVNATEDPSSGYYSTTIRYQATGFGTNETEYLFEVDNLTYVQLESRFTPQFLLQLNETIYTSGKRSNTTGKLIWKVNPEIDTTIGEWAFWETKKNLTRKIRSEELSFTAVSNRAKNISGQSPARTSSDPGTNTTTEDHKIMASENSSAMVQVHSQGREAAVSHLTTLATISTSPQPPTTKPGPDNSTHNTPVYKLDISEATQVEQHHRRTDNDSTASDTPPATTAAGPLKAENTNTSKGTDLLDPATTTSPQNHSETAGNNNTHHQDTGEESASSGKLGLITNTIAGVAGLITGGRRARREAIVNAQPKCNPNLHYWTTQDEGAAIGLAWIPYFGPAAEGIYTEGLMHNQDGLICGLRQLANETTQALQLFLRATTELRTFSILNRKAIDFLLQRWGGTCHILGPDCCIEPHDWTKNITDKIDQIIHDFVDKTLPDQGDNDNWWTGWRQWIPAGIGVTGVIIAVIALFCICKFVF

T2: RESTV GP (Reston virus (RESTV), UniProt Q66799 34-638)
T2 sequence: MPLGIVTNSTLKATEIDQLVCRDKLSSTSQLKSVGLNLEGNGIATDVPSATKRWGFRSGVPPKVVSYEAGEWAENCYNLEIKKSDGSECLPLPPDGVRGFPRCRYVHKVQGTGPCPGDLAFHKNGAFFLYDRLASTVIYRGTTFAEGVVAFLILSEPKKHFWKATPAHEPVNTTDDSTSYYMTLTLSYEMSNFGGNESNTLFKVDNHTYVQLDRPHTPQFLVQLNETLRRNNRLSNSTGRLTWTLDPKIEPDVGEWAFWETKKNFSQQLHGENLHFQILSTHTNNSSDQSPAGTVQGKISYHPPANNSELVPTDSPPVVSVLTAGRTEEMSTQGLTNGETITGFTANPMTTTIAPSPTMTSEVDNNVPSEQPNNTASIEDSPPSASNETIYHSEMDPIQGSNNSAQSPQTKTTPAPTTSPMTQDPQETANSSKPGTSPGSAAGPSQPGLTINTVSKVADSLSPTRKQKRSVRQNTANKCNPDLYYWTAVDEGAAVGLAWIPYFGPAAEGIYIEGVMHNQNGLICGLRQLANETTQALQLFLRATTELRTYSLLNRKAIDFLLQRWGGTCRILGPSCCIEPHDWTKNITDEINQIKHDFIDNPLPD

T3: SUDV GP on rVSV particles (Sudan virus (SUDV), UniProt Q66814 33-676)
T3 sequence: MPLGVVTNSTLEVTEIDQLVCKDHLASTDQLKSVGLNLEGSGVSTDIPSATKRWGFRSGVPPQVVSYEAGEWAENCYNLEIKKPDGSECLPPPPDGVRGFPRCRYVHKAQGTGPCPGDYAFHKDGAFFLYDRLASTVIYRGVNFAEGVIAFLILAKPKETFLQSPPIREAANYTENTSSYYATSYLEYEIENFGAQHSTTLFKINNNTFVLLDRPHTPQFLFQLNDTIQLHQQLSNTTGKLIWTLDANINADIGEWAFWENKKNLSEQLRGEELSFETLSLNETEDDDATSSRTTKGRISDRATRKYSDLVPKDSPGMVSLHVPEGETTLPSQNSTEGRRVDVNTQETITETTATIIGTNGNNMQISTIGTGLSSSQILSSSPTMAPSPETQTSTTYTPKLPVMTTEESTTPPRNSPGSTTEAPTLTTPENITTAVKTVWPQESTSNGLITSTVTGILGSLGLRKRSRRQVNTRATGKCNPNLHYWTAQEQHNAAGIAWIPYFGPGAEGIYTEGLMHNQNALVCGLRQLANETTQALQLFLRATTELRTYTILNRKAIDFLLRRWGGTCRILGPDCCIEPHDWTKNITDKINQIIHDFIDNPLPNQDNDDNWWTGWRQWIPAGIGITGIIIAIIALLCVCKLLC

T4: RESTV GP on rVSV particles (Reston virus (RESTV), UniProt Q66799 34-677)
T4 sequence: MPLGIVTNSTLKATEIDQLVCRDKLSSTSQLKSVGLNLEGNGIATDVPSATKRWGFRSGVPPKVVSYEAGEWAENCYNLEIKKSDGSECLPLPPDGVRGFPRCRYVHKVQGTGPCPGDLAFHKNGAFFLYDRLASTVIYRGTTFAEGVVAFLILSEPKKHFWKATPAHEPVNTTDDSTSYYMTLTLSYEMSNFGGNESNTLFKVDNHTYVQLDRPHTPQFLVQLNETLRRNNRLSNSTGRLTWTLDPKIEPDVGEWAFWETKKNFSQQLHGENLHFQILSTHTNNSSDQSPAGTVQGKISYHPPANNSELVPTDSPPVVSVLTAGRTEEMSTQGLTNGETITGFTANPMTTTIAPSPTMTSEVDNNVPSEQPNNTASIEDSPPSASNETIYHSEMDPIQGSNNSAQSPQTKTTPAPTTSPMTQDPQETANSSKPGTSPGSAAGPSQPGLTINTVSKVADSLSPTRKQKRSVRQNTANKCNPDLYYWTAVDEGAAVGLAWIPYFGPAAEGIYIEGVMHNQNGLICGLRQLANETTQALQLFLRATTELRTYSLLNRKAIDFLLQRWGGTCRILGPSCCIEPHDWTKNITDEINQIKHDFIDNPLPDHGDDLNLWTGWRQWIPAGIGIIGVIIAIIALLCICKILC

B1: mAb PE-16 (antibody, V domains shown)
VH: QVQLVQSGAEVTKPGASVKVSCKASGYTFTTYYMHWVRQAPGQGLEWVGIINPSGGITRYAQKFQGRVTLTRDTSTTTVYMELSSLRSEDTAVYYCARDRYPVLFATDYGMDVWGQGTTVTVSS
VL: DIVMTQSPATLSLSPGERATLSCRASQSVSGYLAWYQQKPGQAPRLLIYDASNRATGIPARFSGSGSGTDFTLTISSLEPEDFAVYYCQQRSIWPPGVTFGGGTKVEIK
B2: mAb PE-47 (antibody, V domains shown)
VH: EVQLVESGGGLVKPGGSLRLSCAASGFTFSNAWMSWVRQAPGEGLEWVGRIKSKTDGGTIDYAAPVKGRFTISRDDSKNTVYLQMTSLKTEDTAVYYCTTYTEDMQYFDWLLRGGETFDYWGQGTLVTVSS
VL: DIQMTQSPSSLSASVGDRVTITCRASQYISTYLNWYQQKPGKAPKLLIYAAYNLQSGVPSRFSGSGSGTDFTLTISSLQPEDFATYYCQQSYSTPGRYTFGQGTKVEIK
B3: mAb PE-87 (antibody, V domains shown)
VH: QVQLVQSGVTLVQPGGSLRVSCAASGFTFSSYAMSWVRQAPGKGLEWVSAISGLGGSTYYADSVKGRFTISRDNSKNTLYLQMNSLRAEDTAVYYCAKDHRVWAAGYHFDYWGQGALVTVSS
VL: DIVLTQSPSTLSASVGDRVTITCRASQSISSWLAWYQQKPGEAPKLLISDASSLESGVPSRFSGSGSGTEFTLTISSLQPDDFATYYCQQYYSSPTFGGGTKVEIK
B4: mAb PE-24 (antibody, V domains shown)
VH: EVQLVESGGGLVQPGGSLRLSCAASGFTFSSYAMSWVRQAPGKGLEWVSEISGLGGSTYYADSAKGRFTISRDNSKSTLYLQMNSLRAEDTAVYYCAKDHRVWAPGYYFDHWGQGTLVTVSS
VL: B3 VL with E42K, S49Y, Y87F, Y92N, S93R
B5: mAb PE-05 (antibody, V domains shown)
VH: QVQLQESGGGLVKPGRSLRLSCTASGFTFGDYAMSWFRQAPGKGLEWVGFLRSKAYGGTAEYAASVKGRFTMSRDDSKSIAYLQMNSLKTEDTAVYFCTRDGFRGSSWGYSYYGMDVWGQGTTVTVSS
VL: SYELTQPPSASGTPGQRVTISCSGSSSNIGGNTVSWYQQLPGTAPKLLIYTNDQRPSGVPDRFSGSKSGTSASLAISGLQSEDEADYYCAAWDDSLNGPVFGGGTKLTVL

Legend:
[1] = molecular target: T1, GP of authentic (wild-type) EBOV; test: cell-based or functional assay
RESTV GP = molecular target: T2, RESTV GP; test: ELISA, GP antigen coated
[2] = molecular target: T3, SUDV GP on rVSV particles; test: cell-based or functional assay
[3] = molecular target: T4, RESTV GP on rVSV particles; test: cell-based or functional assay

Row | Binder | Microneut. WT IC50 [1] [nM] | Neut. WT EBOV PRNT50 [1] [nM] | binding result (RESTV GP) | IC50 (nM), neutralization of rVSV-GP [2] [nM] | IC50 (nM), neutralization of rVSV-GP [3] [nM]
1 | B1 | 0.05 | < 0.02 | no binding (tested: 0.2 µg/ml) |  | 
2 | B2 | 0.7 |  |  |  | 
3 | B3 | 0.3 | < 0.05 |  | 0.8 | 0.1
4 | B4 | 1 | 0.4 |  |  | 
5 | B5 | 7.7 | 4 |  |  | 
